Patent US8535928B2, “Protease and use thereof” (Osaka University, priority 2008, dated 2013)

Experiments:
[1] = substrate: C[C@H](NC(=O)CCC(=O)O)C(=O)N[C@@H](C)C(=O)N1CCC[C@H]1C(=O)N[C@@H](Cc1ccccc1)C(=O)Nc1ccc([N+](=O)[O-])cc1; experiment: Rate parameters of Tk-SP with Suc-AAPF-pNA (Michaelis-Menten); assay type: biochemical, Thermococcus kodakaraensis KOD1; details: substrate 0.01 to 2 mM
Method: (§1) For examination of the pH dependence and the buffer dependence of the Tk-SP, enzyme reactions were performed using acetate buffers (pH 4.5, 5.0, 5.2, 5.4 and 5.6), MES buffers (pH 5.5, 6.0, 6.5 and 7.0), HEPES buffers (pH 7.0 and 7.5), Tris-HCl buffers (pH 7.0, 7.5, 8.0, 8.5 and 9.0), glycine-NaOH buffers (pH 8.5, 9.0, 9.5 and 10.0) and CAPS-NaOH buffers (pH 9.0, 9.5, 10.0, 10.5, 11.0 and 11.5) in the following procedure. 100 μl of a reaction mixture containing a 50 mM buffer and 2 mM Suc-AAPF-pNA (synthetic substrate) was incubated at 20° C. for 5 minutes. To this, 0.1 μg of the Tk-SP was added and the reaction mixture was further incubated at 20° C. for 10 minutes. The reaction was stopped by addition of 10 μl of acetic acid, and then the amount of p-nitroaniline produced from the synthetic substrate Suc-AAPF-pNA was determined by use of the absorption coefficient of 8900 M^−1 cm^−1 from the absorbance at 410 nm in an ultraviolet spectrophotometer (Beckman model DU640). The amount of the enzyme which catalyzes the production of 1 μmol of p-nitroaniline per minute was defined as “one unit.” The enzyme activity per milligram of the protein was defined as specific activity.
(§2) By use of, as a substrate, Suc-AAPF-pNA at various concentrations ranging from 0.01 to 2 mM, the specific activity of the Tk-SP was measured at 20 and 80° C. The measurement procedure was the same as that of Example 2. The obtained values were applied to the Michaelis-Menten equation for calculation of the rate parameters. For comparison, the specific activity of a known thermostable protease, Tk-subtilisin (see nonpatent literature 1) was similarly measured and then the rate parameters thereof were calculated.

[2] = substrate: C[C@H](NC(=O)CCC(=O)O)C(=O)N[C@@H](C)C(=O)N1CCC[C@H]1C(=O)N[C@@H](Cc1ccccc1)C(=O)Nc1ccc([N+](=O)[O-])cc1; experiment: Rate parameters of Tk-subtilisin with Suc-AAPF-pNA (Michaelis-Menten), comparison; assay type: biochemical, Thermococcus kodakaraensis KOD1; details: substrate 0.01 to 2 mM
Method: as §1, §2

B1: Thermococcus kodakaraensis KOD1 protease Tk-SP (mature subtilisin-like serine protease, SEQ ID NO: 1 or SEQ ID NO: 3) (Thermococcus kodakarensis KOD1) (protein)
chain: VETEGLDESAAQVMATNMWNLGYDGSGITIGIIDTGIDASHPDLQGKVIGWVDFVNGKTTPYDDNGHGTHVASIAAGTGAASNGKYKGMAPGAKLVGIKVLNGQGSGSISDIINGVDWAVQNKDKYGIKVINLSLGSSQSSDGTDSLSQAVNNAWDAGLVVVVAAGNSGPNKYTVGSPAAASKVITVGAVDKYDVITDFSSRGPTADNRLKPEVVAPGNWIIAARASGTSMGQPINDYYTAAPGTSMATPHVAGIAALLLQAHPSWTPDKVKTALIETADIVKPDEIADIAYGAGRVNAYKAAYYDNYAKLTFTGYVSNKGSQSHQFTISGAGFVTATLYWDNSGSDLDLYLYDPNGNQVDYSYTAYYGFEKVGYYNPTAGTWTIKVVSYSGSANYQVDVVSDGSLGQPSGGGSEPSPSPSPEPTV
notes: C-terminus at 562 or 563
Km ([1]; other: 20° C., 20.0 °C): 117 µM | Vmax ([1]; other: 20° C., 20.0 °C): 2.312 U/mg | kcat ([1]; other: 20° C., 20.0 °C): 1.704 S^−1 | Km ([1]; other: 80° C., 80.0 °C): 416 µM | Vmax ([1]; other: 80° C., 80.0 °C): 34.84 U/mg | kcat ([1]; other: 80° C., 80.0 °C): 25.668 S^−1

B2: Thermococcus kodakaraensis KOD1 Tk-subtilisin (Tk-sub) (Thermococcus kodakarensis KOD1) (protein)
chain: GKPSWLGGGSTQPAQTIPWGIERVKAPSVWSITDGSVSVIQVAVLDTGVDYDHPDLAANIAWCVSTLRGKVSTKLRDCADQNGHGTHVIGTIAALNNDIGVVGVAPGVQIYSVRVLDARGSGSYSDIAIGIEQAILGPDGVADKDGDGIIAGDPDDDAAEVISMSLGGPADDSYLYDMIIQAYNAGIVIVAASGNEGAPSPSYPAAYPEVIAVGAIDSNDNIASFSNRQPEVSAPGVDILSTYPDDSYETLMGTSMATPHVSGVVALIQAAYYQKYGKILPVGTFDDISKNTVRGILHITADDLGPTGWDADYGYGVVRAALAVQAALG
Km ([2]; other: 20° C., 20.0 °C): 4000 µM | Vmax ([2]; other: 20° C., 20.0 °C): 38.00 U/mg | kcat ([2]; other: 20° C., 20.0 °C): 26.00 S^−1 | Km ([2]; other: 80° C., 80.0 °C): 8000 µM | Vmax ([2]; other: 80° C., 80.0 °C): 420.00 U/mg | kcat ([2]; other: 80° C., 80.0 °C): 290.00 S^−1
